# Laboratory results taken from the Immune Epitope Database (IEDB).
# Experiments:
# [1] = target: HLA-B*07:02; assay: IEDB peptide-MHC binding, purified MHC/competitive/radioactivity; ≥ and ≤ were set here for values at or beyond the usual limits of such assays; conditions: source organism: Toxoplasma gondii
# [2] = target: HLA-A*02:01; assay: as above; conditions: source organism: Toxoplasma gondii
# [3] = target: HLA-A*11:01; assay: as above; conditions: source organism: Toxoplasma gondii
# [4] = target: HLA-B*39:01; assay: IEDB peptide-MHC binding, purified MHC/competitive/fluorescence; filed as Kd, often an IC50 or EC50 that approximates it; ≥ and ≤ were set here for values at or beyond the usual limits of such assays; conditions: source organism: Escherichia coli B171
# [5] = target: HLA-B*15:42; assay: as above
# [6] = target: HLA-B*40:01; assay: as above; conditions: source organism: Escherichia coli B171
# [7] = target: HLA-B*40:13; assay: as above; conditions: source organism: Escherichia coli B171
# [8] = target: HLA-B*83:01; assay: as above
# [9] = target: HLA-B*45:06; assay: as above
# [10] = target: HLA-A*32:07; assay: as above
# [11] = target: HLA-B*15:01; assay: IEDB peptide-MHC binding, purified MHC/direct/fluorescence; filed as Kd, often an IC50 or EC50 that approximates it; ≥ and ≤ were set here for values at or beyond the usual limits of such assays
# [12] = target: HLA-B*35:01; assay: as above; conditions: source organism: Salmonella enterica subsp. enterica serovar Typhi
# [13] = target: HLA-B*44:02; assay: IEDB peptide-MHC binding, purified MHC/competitive/fluorescence; filed as Kd, often an IC50 or EC50 that approximates it; ≥ and ≤ were set here for values at or beyond the usual limits of such assays; conditions: source organism: Salmonella enterica subsp. enterica serovar Typhi
# [14] = target: HLA-B*15:17; assay: as above
# [15] = target: HLA-B*57:01; assay: as above; conditions: source organism: Salmonella enterica subsp. enterica serovar Typhi
# [16] = target: HLA-B*58:01; assay: IEDB peptide-MHC binding, purified MHC/direct/fluorescence; filed as Kd, often an IC50 or EC50 that approximates it; ≥ and ≤ were set here for values at or beyond the usual limits of such assays
# [17] = target: HLA-A*32:15; assay: IEDB peptide-MHC binding, purified MHC/competitive/fluorescence; filed as Kd, often an IC50 or EC50 that approximates it; ≥ and ≤ were set here for values at or beyond the usual limits of such assays; conditions: source organism: Mycobacterium tuberculosis variant bovis BCG str. Pasteur 1173P2
# [18] = target: HLA-B*35:01; assay: as above; conditions: source organism: Mycobacterium tuberculosis variant bovis BCG str. Pasteur 1173P2
# [19] = target: HLA-A*68:23; assay: as above; conditions: source organism: Mycobacterium tuberculosis variant bovis BCG str. Pasteur 1173P2
# [20] = target: HLA-B*51:01; assay: as above; conditions: source organism: Mycobacterium tuberculosis variant bovis BCG str. Pasteur 1173P2
# [21] = target: HLA-A*26:01; assay: IEDB peptide-MHC binding, purified MHC/direct/fluorescence; filed as Kd, often an IC50 or EC50 that approximates it; ≥ and ≤ were set here for values at or beyond the usual limits of such assays; conditions: source organism: Variola virus
# [22] = target: HLA-B*48:01; assay: as above; conditions: source organism: Camelpox virus M-96
# [23] = target: HLA-B*39:01; assay: as above; conditions: source organism: Variola virus
# [24] = target: HLA-B*27:05; assay: as above; conditions: source organism: Camelpox virus M-96
# [25] = target: HLA-B*46:01; assay: as above
# [26] = target: HLA-B*57:01; assay: as above; conditions: source organism: Camelpox virus M-96
# [27] = target: HLA-A*02:01; assay: as above; conditions: source organism: Camelpox virus M-96
# [28] = target: HLA-A*01:01; assay: as above; conditions: source organism: Camelpox virus M-96
# [29] = target: HLA-A*80:01; assay: as above; conditions: source organism: Camelpox virus M-96
# [30] = target: HLA-B*40:01; assay: as above; conditions: source organism: Camelpox virus M-96
# [31] = target: HLA-B*15:09; assay: as above; conditions: source organism: Variola virus
# [32] = target: HLA-A*31:01; assay: as above; conditions: source organism: Camelpox virus M-96
# [33] = target: HLA-A*69:01; assay: IEDB peptide-MHC binding, purified MHC/competitive/fluorescence; filed as Kd, often an IC50 or EC50 that approximates it; ≥ and ≤ were set here for values at or beyond the usual limits of such assays; conditions: source organism: Taterapox virus
# [34] = target: HLA-A*03:01; assay: as above; conditions: source organism: Taterapox virus
# [35] = target: HLA-A*11:01; assay: as above; conditions: source organism: Taterapox virus
# [36] = target: HLA-B*15:02; assay: IEDB peptide-MHC binding, purified MHC/direct/fluorescence; filed as Kd, often an IC50 or EC50 that approximates it; ≥ and ≤ were set here for values at or beyond the usual limits of such assays; conditions: source organism: Convict Creek 107 virus
# [37] = source organism: Escherichia coli B171
# [38] = source organism: Salmonella enterica subsp. enterica serovar Typhi
# [39] = source organism: Mycobacterium tuberculosis variant bovis BCG str. Pasteur 1173P2
# [40] = source organism: Camelpox virus M-96
# [41] = source organism: Convict Creek 107 virus
sequence,measurement,setting,value
AVVSLLRLLK,IC50,[1],≥ 50 µM
same,IC50,[2],11.3 µM
same,IC50,[3],0.0065 µM
HELSLFWPL,Kd,[4],0.0002 µM
same,Kd,[5]; [37],≥ 5 µM
same,Kd,[6],0.0025 µM
same,Kd,[7],0.0302 µM
same,Kd,[8]; [37],≥ 5 µM
same,Kd,[9]; [37],≥ 5 µM
same,Kd,[10]; [37],0.0582 µM
IVLLCYGGW,Kd,[11]; [38],6.18 µM
same,Kd,[12],2.53 µM
same,Kd,[13],≥ 20 µM
same,Kd,[14]; [38],0.175 µM
same,Kd,[15],0.497 µM
MTMITPPTF,Kd,[16]; source organism: Mycobacterium tuberculosis,0.0513 µM
same,Kd,[17],0.0192 µM
same,Kd,[18],0.111 µM
same,Kd,[5]; [39],≥ 5 µM
same,Kd,[8]; [39],≥ 5 µM
same,Kd,[9]; [39],≥ 5 µM
same,Kd,[10]; [39],0.0093 µM
same,Kd,[19],0.0044 µM
same,Kd,[20],≥ 20 µM
NTDAFSREY,Kd,[21],0.984 µM
same,Kd,[22],≥ 20 µM
same,Kd,[23],≥ 20 µM
same,Kd,[24],≥ 20 µM
same,Kd,[11]; [40],≥ 20 µM
same,Kd,[25]; [40],≥ 20 µM
same,Kd,[26],≥ 20 µM
same,Kd,[27],≥ 20 µM
same,Kd,[16]; [40],≥ 20 µM
same,Kd,[28],0.007 µM
same,Kd,[29],0.567 µM
same,Kd,[30],≥ 20 µM
same,Kd,[31],≥ 20 µM
same,Kd,[32],≥ 20 µM
same,Kd,[33],≥ 20 µM
same,Kd,[14]; source organism: Taterapox virus,≥ 20 µM
same,Kd,[34],≥ 20 µM
same,Kd,[35],≥ 20 µM
VLFKTESGF,Kd,[11]; [41],0.0118 µM
same,Kd,[25]; [41],≥ 20 µM
same,Kd,[36],0.047 µM
